# Where a chain is given by its changes, count along the chain named. In names and notes the source's numbering stands.
# T1: TNFR1 (Homo sapiens, UniProt P19438)
# T1 chain: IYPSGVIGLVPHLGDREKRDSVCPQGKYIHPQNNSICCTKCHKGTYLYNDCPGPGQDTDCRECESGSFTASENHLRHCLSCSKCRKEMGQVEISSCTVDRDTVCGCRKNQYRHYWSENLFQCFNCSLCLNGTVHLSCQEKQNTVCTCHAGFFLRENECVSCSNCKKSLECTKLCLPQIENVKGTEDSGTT
# B1: R96A (designed binder)
# chain: SMEEEVEKAAKEYEKKKKEAIEKHLEKLKAKDKEAAERFLKELEEAAKEYAKDEAKTMSEEEAKRRAKKYKEKVLLSELSEEEQKEIKEAEEKLVATILKYVEEAAK
# B2: K31L (designed binder)
# chain: B1 chain with K31L, A96R
# B3: E104S (designed binder)
# chain: B1 chain with A96R, E104S
# B4: F39H (designed binder)
# chain: B1 chain with F39H, A96R
# B5: I98G (designed binder)
# chain: B1 chain with A96R, I98G
# B6: A30F (designed binder)
# chain: B1 chain with A30F, A96R
# B7: V74K (designed binder)
# chain: B1 chain with V74K, A96R
# B8: K56G (designed binder)
# chain: B1 chain with K56G, A96R
# B9: Y13H (designed binder)
# chain: B1 chain with Y13H, A96R
# B10: S59M (designed binder)
# chain: B1 chain with S59M, A96R
# B11: A51C (designed binder)
# chain: B1 chain with A51C, A96R
# B12: Y70G (designed binder)
# chain: B1 chain with Y70G, A96R
# B13: K93R (designed binder)
# chain: B1 chain with K93R, A96R
# B14: K8I (designed binder)
# chain: B1 chain with K8I, A96R
# B15: E82P (designed binder)
# chain: B1 chain with E82P, A96R
# B16: V6S (designed binder)
# chain: B1 chain with V6S, A96R
# B17: A90Y (designed binder)
# chain: B1 chain with A90Y, A96R
# B18: E22K (designed binder)
# chain: B1 chain with E22K, A96R
# B19: E91P (designed binder)
# chain: B1 chain with E91P, A96R
# B20: E34G (designed binder)
# chain: B1 chain with E34G, A96R
# B21: K31C (designed binder)
# chain: B1 chain with K31C, A96R
# B22: A63G (designed binder)
# chain: B1 chain with A63G, A96R
# B23: K15L (designed binder)
# chain: B1 chain with K15L, A96R
# B24: K41E (designed binder)
# chain: B1 chain with K41E, A96R
# B25: A35R (designed binder)
# chain: B1 chain with A35R, A96R
# B26: L94I (designed binder)
# chain: B1 chain with L94I, A96R
# B27: A63R (designed binder)
# chain: B1 chain with A63R, A96R
# B28: L25A (designed binder)
# chain: B1 chain with L25A, A96R
# B29: Y101P (designed binder)
# chain: B1 chain with A96R, Y101P
# B30: K8S (designed binder)
# chain: B1 chain with K8S, A96R
# B31: R38Q (designed binder)
# chain: B1 chain with R38Q, A96R
# B32: K107M (designed binder)
# chain: B1 chain with A96R, K107M
# B33: E91A (designed binder)
# chain: B1 chain with E91A, A96R
# B34: K56Y (designed binder)
# chain: B1 chain with K56Y, A96R
# B35: E82R (designed binder)
# chain: B1 chain with E82R, A96R
# B36: R66M (designed binder)
# chain: B1 chain with R66M, A96R
# B37: K73E (designed binder)
# chain: B1 chain with K73E, A96R
# B38: A51E (designed binder)
# chain: B1 chain with A51E, A96R
# B39: E83N (designed binder)
# chain: B1 chain with E83N, A96R
# B40: H24M (designed binder)
# chain: B1 chain with H24M, A96R
# B41: R96D (designed binder)
# chain: B1 chain with A96D
# B42: R96C (designed binder)
# chain: B1 chain with A96C
# B43: E19T (designed binder)
# chain: B1 chain with E19T, A96R
# B44: D53S (designed binder)
# chain: B1 chain with D53S, A96R
# B45: E49M (designed binder)
# chain: B1 chain with E49M, A96R
# B46: E83Q (designed binder)
# chain: B1 chain with E83Q, A96R
# B47: V6K (designed binder)
# chain: B1 chain with V6K, A96R
# B48: E61Q (designed binder)
# chain: B1 chain with E61Q, A96R
# B49: K73G (designed binder)
# chain: B1 chain with K73G, A96R
# B50: E45D (designed binder)
# chain: B1 chain with E45D, A96R
# B51: E45R (designed binder)
# chain: B1 chain with E45R, A96R
# B52: E81F (designed binder)
# chain: B1 chain with E81F, A96R
# B53: Y70D (designed binder)
# chain: B1 chain with Y70D, A96R
# B54: I98C (designed binder)
# chain: B1 chain with A96R, I98C
# B55: K15T (designed binder)
# chain: B1 chain with K15T, A96R
# B56: H24F (designed binder)
# chain: B1 chain with H24F, A96R
# B57: K8V (designed binder)
# chain: B1 chain with K8V, A96R
# B58: K16V (designed binder)
# chain: B1 chain with K16V, A96R
# B59: K33M (designed binder)
# chain: B1 chain with K33M, A96R
# Molecular target: T1, TNFR1
# Assay: yeast display SC50
row,apparent Kd (screen) [nM],Binder
1,3,B1
2,0.49,B2
3,0.718,B3
4,4.39,B4
5,6.43,B5
6,0.869,B6
7,6.43,B7
8,7.07,B8
9,0.446,B9
10,1.69,B10
11,0.446,B11
12,3.99,B12
13,0.593,B13
14,1.05,B14
15,1.16,B15
16,1.4,B16
17,0.49,B17
18,1.05,B18
19,1.54,B19
20,0.405,B20

row,apparent Kd (screen) [nM],Binder
1,1.27,B21
2,11.4,B22
3,0.49,B23
4,0.49,B24
5,0.539,B25
6,0.405,B26
7,6.43,B27
8,0.593,B28
9,0.405,B29
10,1.4,B30
11,1.86,B31
12,1.4,B32
13,7.07,B33
14,3.99,B34
15,0.405,B35
16,26.9,B36
17,11.4,B37
18,0.49,B38
19,0.79,B39
20,0.49,B40

row,apparent Kd (screen) [nM],Binder
1,10.4,B41
2,2.48,B42
3,0.49,B43
4,0.446,B44
5,12.5,B45
6,0.593,B46
7,1.54,B47
8,1.4,B48
9,22.2,B49
10,0.539,B50
11,6.43,B51
12,0.593,B52
13,5.84,B53
14,6.43,B54
15,0.653,B55
16,0.956,B56
17,1.16,B57
18,1.05,B58
19,0.593,B59

# From article PMC12416549 (2024)
